Test in all cases: Ni-NTA co-precipitation after co-expression in E. coli
Assay [1] concerns the target T1, PB2-N (residues 1-86) carrying a hexa-histidine tag at the N-terminal end (influenza A/Puerto Rico/8/34 H1N1, UniProt A4GCJ6 1-86).
T1 sequence: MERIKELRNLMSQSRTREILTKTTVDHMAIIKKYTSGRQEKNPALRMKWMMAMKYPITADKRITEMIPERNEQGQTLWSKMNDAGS

In assay [2] the target is T2, PB2 residues 37-174 with N-terminal hexa-histidine tag and TEV cleavage site (influenza A/Puerto Rico/8/34 H1N1, UniProt A4GCJ6 37-174).
T2 sequence: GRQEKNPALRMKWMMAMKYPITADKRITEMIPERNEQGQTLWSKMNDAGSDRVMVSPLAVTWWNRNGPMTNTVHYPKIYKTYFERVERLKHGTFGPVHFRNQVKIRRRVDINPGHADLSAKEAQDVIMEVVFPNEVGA

The target of assay [3] is PB2 residues 252-490 with N-terminal hexa-histidine tag and TEV cleavage site (influenza A/Puerto Rico/8/34 H1N1, UniProt B4URE6 252-490).

B1: PB1-C (C-terminal residues 678-757 of the RNA polymerase PB1 subunit, influenza A/Puerto Rico/8/34 H1N1) (other)
chain: SQRGVLEDEQMYQRCCNLFEKFFPSSSYRRPVGISSMVEAMVSRARIDARIDFESGRIKKEEFTEIMKICSTIEELRRQK
Regarding B1, the binding result in assay [1] is “binds”; in assay [2], “no binding”; in assay [3] it was “no binding”.

(Values after US20110262944A1 (UNIVERSITY OF TSUKUBA, published 2011).)
